Results on one substance are retold here after article PMC11228396.

The target of this assay is Stabilized soluble Omicron BA.1 spike (SARS-CoV-2). As to the kind of experiment: cryo-EM structure.

What is called stoichiometry N is a count of units in the complex or per binding partner. “Stabilized soluble Omicron BA.1 spike (domain or fragment)” registered a stoichiometry N of 3.
